{"source": "patent US10245299B2", "about": "“Autoassembling peptides for the treatment of pulmonary bulla” (3-D MATRIX, LTD., priority 2014, dated 2019)", "format_in_all_cases": "physicochemical", "key": {"[1]": {"test": "Gelation kinetics of pH adjusted peptides, time sweep with DMEM", "conditions": "with pH adjustment; PuraMatrix® 2.5%, IEIK13 1.5% solution", "protocol": "The effect of pH level on the properties of gelation kinetics was evaluated to identify optimized pH levels for the peptides as described herein. Fast gelation kinetics of PuraMatrix® and other peptides within body fluid may generally improve its function and response time for various clinical applications. The pH level may impart response time to begin gelation when treated with simulated body fluid including but not limited to DMEM. […] A fast response time of PuraMatrix® and other peptides within body fluid may generally improve its function and response time for various clinical applications.\n(§1) Time sweep tests were performed at 1 rad/sec and at 1 Pa with 20 mm plates and 500 μm gap distance. During time sweep test of PuraMatrix® 2.5% solution, DMEM was added into the chamber surrounding the measuring plates to soak PuraMatrix® solution at 0 time point. The results are shown in FIG. 9A for PuraMatrix® 2.5% solution.\nas §1, with “IEIK13 1.5%” for “PuraMatrix® 2.5%”, “IEIK13 1.5%” for “PuraMatrix®”, “point and continuously data was recorded.” for “point.”, “9B” for “9A”"}, "[2]": {"test": "Appearance of 1.5% peptide solutions with various salts at room temperature", "conditions": "for Appearance: room temperature", "protocol": "The effect of salt ionic strength level on the properties of peptide solutions was evaluated to identify optimized salt ionic strength levels for the peptides as described herein. Increasing the salt ionic strength level of PuraMatrix® and other peptides may generally improve its function and mechanical strength for various clinical applications. To adjust the salt ionic strength of the peptide solutions by way of example, various salt buffer solutions including NaCl, KCl, MgCl2, CaCl2 and DPBS (10×) were added to 2 mL of 1.5% peptide solutions."}, "[3]": {"test": "Rheological properties of pH adjusted peptide solutions and hydrogels", "conditions": "KLD12 1%, IEIK13 1%, PuraMatrix® 1% and 2.5%", "protocol": "Based on the visual observation of the effect of pH level on the properties of the peptide solutions, the effect on the rheological properties of the peptide solutions after adjusting their pH level to 3.4 (PuraMatrix® and KLD12) or 3.7 (IEIK13) was evaluated. If the pH levels of peptide solutions are higher than 3.5 (PuraMatrix® and KLD12) or 3.7 (IEIK13), the peptide solution began phase separation becoming cloudy. The rheological properties of PuraMatrix®, KLD12 and IEIK13 solutions were higher at pH 3.4. The results are shown in FIG. 2 for KLD12 1%, FIG. 3 for IEIK13 1%, and FIGS. 4-5 for PuraMatrix® 1% and 2.5%, respectively. Stress sweep tests were performed at 10 rad/s. Frequency sweep tests were performed at 1 Pa.\nBased on the results of the effect on the rheological properties of the peptide solutions after adjusting their pH level to 3.4 (PuraMatrix® and KLD12) or 3.7 (IEIK13), the effect on the rheological properties of the peptide solutions at various pH levels was evaluated. […] The rheological properties of peptides were evaluated at various concentrations using a rheometer (DHR-1, TA Instruments) with 20 mm plates. The results are shown in FIG. 6A for PuraMatrix® 2.5% solution and FIG. 6B for IEIK13 1.5% solution, respectively. Frequency sweep tests were performed from 1 rad/sec to 10 rad/sec at 1 Pa and the storage modulus at 1 rad/sec was selected for data.\nBased on the results of the effect on the rheological properties of the peptide solutions after adjusting their pH level, the effect on the rheological properties of the peptide hydrogels at various pH after DMEM treatment was evaluated and compared to the effect on the rheological properties of the peptide solutions at various pH before DMEM treatment. […] The results are shown in FIGS. 7A-7B for PuraMatrix® and FIGS. 8A-8B for IEIK (SEQ ID NO: 5), respectively. Frequency sweep tests were performed from 1 rad/sec to 10 rad/sec at 1 Pa and the storage modulus at 1 rad/sec was selected for data."}}, "data": [{"substance": "Arg-Ala-Asp-Ala-Arg-Ala-Asp-Ala-Arg-Ala-Asp-Ala-Arg-Ala-Asp-Ala [PuraMatrix®]", "values": [{"measurement": "storage modulus response on DMEM addition", "setting": "[1]", "value": "immediate storage modulus increase"}, {"measurement": "Appearance", "setting": "[2]; PuraMatrix ® 0.5%, DPBS (pH 3.2) 1.0 M, ionic strength 1.0 M", "value": "Cloudy, phase-separated"}, {"measurement": "Appearance", "setting": "[2]; PuraMatrix ® 0.55%, DPBS (pH 3.2) 0.95 M, ionic strength 0.95 M", "value": "Slightly cloudy, brittle gel"}, {"measurement": "Appearance", "setting": "[2]; PuraMatrix ® 0.6%, DPBS (pH 3.2) 0.9 M, ionic strength 0.9 M", "value": "Clear, thick, stiffer gel"}, {"measurement": "Appearance", "setting": "[2]; PuraMatrix ® 0.75%, DPBS (pH 3.2) 0.75 M, ionic strength 0.75 M", "value": "Clear, thick, stiffer gel"}, {"measurement": "Appearance", "setting": "[2]; PuraMatrix ® 0.9%, DPBS (pH 3.2) 0.6 M, ionic strength 0.6 M", "value": "Clear, thick, stiffer gel"}, {"measurement": "Appearance", "setting": "[2]; PuraMatrix ® 0.93%, KCl 1.15 M, ionic strength 1.15 M", "value": "Cloudy, phase-separated"}, {"measurement": "Appearance", "setting": "[2]; PuraMatrix ® 0.95%, KCl 1.1 M, ionic strength 1.1 M", "value": "Slightly cloudy, brittle gel"}, {"measurement": "Appearance", "setting": "[2]; PuraMatrix ® 0.98%, KCl 1.05 M, ionic strength 1.05 M", "value": "Slightly cloudy, thick, stiffer gel"}, {"measurement": "Appearance", "setting": "[2]; PuraMatrix ® 1.0%, KCl 1.0 M, ionic strength 1.0 M", "value": "Clear, thick, stiffer gel"}, {"measurement": "Appearance", "setting": "[2]; PuraMatrix ® 1.0%, NaCl 1.0 M, ionic strength 1.0 M", "value": "Cloudy, phase-separated"}, {"measurement": "Appearance", "setting": "[2]; PuraMatrix ® 1.03%, KCl 0.95 M, ionic strength 0.95 M", "value": "Clear, thick, stiffer gel"}, {"measurement": "Appearance", "setting": "[2]; PuraMatrix ® 1.03%, NaCl 0.95 M, ionic strength 0.95 M", "value": "Cloudy, phase-separated"}, {"measurement": "Appearance", "setting": "[2]; PuraMatrix ® 1.05%, DPBS (pH 3.2) 0.45 M, ionic strength 0.45 M", "value": "Clear, thick, stiffer gel"}, {"measurement": "Appearance", "setting": "[2]; PuraMatrix ® 1.05%, KCl 0.9 M, ionic strength 0.9 M", "value": "Clear, thick, stiffer gel"}, {"measurement": "Appearance", "setting": "[2]; PuraMatrix ® 1.05%, NaCl 0.9 M, ionic strength 0.9 M", "value": "Slightly cloudy, brittle gel"}, {"measurement": "Appearance", "setting": "[2]; PuraMatrix ® 1.08%, NaCl 0.85 M, ionic strength 0.85 M", "value": "Clear, thick, stiffer gel"}, {"measurement": "Appearance", "setting": "[2]; PuraMatrix ® 1.10%, NaCl 0.8 M, ionic strength 0.8 M", "value": "Clear, thick, stiffer gel"}, {"measurement": "Appearance", "setting": "[2]; PuraMatrix ® 1.13%, KCl 0.75 M, ionic strength 0.75 M", "value": "Clear, thick, stiffer gel"}, {"measurement": "Appearance", "setting": "[2]; PuraMatrix ® 1.13%, NaCl 0.75 M, ionic strength 0.75 M", "value": "Clear, thick, stiffer gel"}, {"measurement": "Appearance", "setting": "[2]; PuraMatrix ® 1.2%, DPBS (pH 3.2) 0.3 M, ionic strength 0.3 M", "value": "Clear, thick, stiffer gel"}, {"measurement": "Appearance", "setting": "[2]; PuraMatrix ® 1.2%, KCl 0.6 M, ionic strength 0.6 M", "value": "Clear, thick, stiffer gel"}, {"measurement": "Appearance", "setting": "[2]; PuraMatrix ® 1.2%, NaCl 0.6 M, ionic strength 0.6 M", "value": "Clear, thick, stiffer gel"}, {"measurement": "Appearance", "setting": "[2]; PuraMatrix ® 1.27%, KCl 0.45 M, ionic strength 0.45 M", "value": "Clear, thick, stiffer gel"}, {"measurement": "Appearance", "setting": "[2]; PuraMatrix ® 1.27%, NaCl 0.45 M, ionic strength 0.45 M", "value": "Clear, thick, stiffer gel"}, {"measurement": "Appearance", "setting": "[2]; PuraMatrix ® 1.28%, CaCl2 0.433 M, ionic strength 1.3 M", "value": "Cloudy, phase-separated"}, {"measurement": "Appearance", "setting": "[2]; PuraMatrix ® 1.28%, MgCl2 0.433 M, ionic strength 1.3 M", "value": "Cloudy, phase-separated"}, {"measurement": "Appearance", "setting": "[2]; PuraMatrix ® 1.29%, CaCl2 0.417 M, ionic strength 1.25 M", "value": "Slightly cloudy, brittle gel"}, {"measurement": "Appearance", "setting": "[2]; PuraMatrix ® 1.29%, MgCl2 0.417 M, ionic strength 1.25 M", "value": "Slightly cloudy, brittle gel"}, {"measurement": "Appearance", "setting": "[2]; PuraMatrix ® 1.3%, CaCl2 0.4 M, ionic strength 1.2 M", "value": "Slightly cloudy, thick, stiffer gel"}, {"measurement": "Appearance", "setting": "[2]; PuraMatrix ® 1.3%, MgCl2 0.4 M, ionic strength 1.2 M", "value": "Slightly cloudy, thick, stiffer gel"}, {"measurement": "Appearance", "setting": "[2]; PuraMatrix ® 1.31%, CaCl2 0.383 M, ionic strength 1.15 M", "value": "Clear, thick, stiffer gel"}, {"measurement": "Appearance", "setting": "[2]; PuraMatrix ® 1.31%, MgCl2 0.383 M, ionic strength 1.15 M", "value": "Clear, thick, stiffer gel"}, {"measurement": "Appearance", "setting": "[2]; PuraMatrix ® 1.32%, CaCl2 0.35 M, ionic strength 1.05 M", "value": "Clear, thick, stiffer gel"}, {"measurement": "Appearance", "setting": "[2]; PuraMatrix ® 1.32%, MgCl2 0.35 M, ionic strength 1.05 M", "value": "Clear, thick, stiffer gel"}, {"measurement": "Appearance", "setting": "[2]; PuraMatrix ® 1.35%, CaCl2 0.3 M, ionic strength 0.9 M", "value": "Clear, thick, stiffer gel"}, {"measurement": "Appearance", "setting": "[2]; PuraMatrix ® 1.35%, DPBS (pH 3.2) 0.15 M, ionic strength 0.15 M", "value": "Clear, thick, stiffer gel"}, {"measurement": "Appearance", "setting": "[2]; PuraMatrix ® 1.35%, KCl 0.3 M, ionic strength 0.3 M", "value": "Clear, thick, stiffer gel"}, {"measurement": "Appearance", "setting": "[2]; PuraMatrix ® 1.35%, MgCl2 0.3 M, ionic strength 0.9 M", "value": "Clear, thick, stiffer gel"}, {"measurement": "Appearance", "setting": "[2]; PuraMatrix ® 1.35%, NaCl 0.3 M, ionic strength 0.3 M", "value": "Clear, thick, stiffer gel"}, {"measurement": "Appearance", "setting": "[2]; PuraMatrix ® 1.38%, CaCl2 0.25 M, ionic strength 0.75 M", "value": "Clear, thick, stiffer gel"}, {"measurement": "Appearance", "setting": "[2]; PuraMatrix ® 1.38%, MgCl2 0.25 M, ionic strength 0.75 M", "value": "Clear, thick, stiffer gel"}, {"measurement": "Appearance", "setting": "[2]; PuraMatrix ® 1.4%, CaCl2 0.2 M, ionic strength 0.6 M", "value": "Clear, thick, stiffer gel"}, {"measurement": "Appearance", "setting": "[2]; PuraMatrix ® 1.4%, MgCl2 0.2 M, ionic strength 0.6 M", "value": "Clear, thick, stiffer gel"}, {"measurement": "Appearance", "setting": "[2]; PuraMatrix ® 1.43%, CaCl2 0.15 M, ionic strength 0.45 M", "value": "Clear, thick, stiffer gel"}, {"measurement": "Appearance", "setting": "[2]; PuraMatrix ® 1.43%, KCl 0.15 M, ionic strength 0.15 M", "value": "Clear, thick, stiffer gel"}, {"measurement": "Appearance", "setting": "[2]; PuraMatrix ® 1.43%, MgCl2 0.15 M, ionic strength 0.45 M", "value": "Clear, thick, stiffer gel"}, {"measurement": "Appearance", "setting": "[2]; PuraMatrix ® 1.43%, NaCl 0.15 M, ionic strength 0.15 M", "value": "Clear, thick, stiffer gel"}, {"measurement": "Appearance", "setting": "[2]; PuraMatrix ® 1.45%, CaCl2 0.1 M, ionic strength 0.3 M", "value": "Clear, thick, stiffer gel"}, {"measurement": "Appearance", "setting": "[2]; PuraMatrix ® 1.45%, MgCl2 0.1 M, ionic strength 0.3 M", "value": "Clear, thick, stiffer gel"}, {"measurement": "Appearance", "setting": "[2]; PuraMatrix ® 1.48%, CaCl2 0.05 M, ionic strength 0.15 M", "value": "Clear, thick, stiffer gel"}, {"measurement": "Appearance", "setting": "[2]; PuraMatrix ® 1.48%, MgCl2 0.05 M, ionic strength 0.15 M", "value": "Clear, thick, stiffer gel"}, {"measurement": "Appearance", "setting": "[2]; PuraMatrix ® 1.5%, CaCl2 0 M, ionic strength 0 M", "value": "Clear, thick gel"}, {"measurement": "Appearance", "setting": "[2]; PuraMatrix ® 1.5%, DPBS (pH 3.2) 0 M, ionic strength 0 M", "value": "Clear, thick gel"}, {"measurement": "Appearance", "setting": "[2]; PuraMatrix ® 1.5%, KCl 0 M, ionic strength 0 M", "value": "Clear, thick gel"}, {"measurement": "Appearance", "setting": "[2]; PuraMatrix ® 1.5%, MgCl2 0 M, ionic strength 0 M", "value": "Clear, thick gel"}, {"measurement": "Appearance", "setting": "[2]; PuraMatrix ® 1.5%, NaCl 0 M, ionic strength 0 M", "value": "Clear, thick gel"}, {"measurement": "salt ionic strength increase that did not change the clear color of the solution (apparent stiffness increased)", "setting": "[2]; depending on different salts, 1.5% peptide solutions", "value": "0.85˜1.15 M"}, {"measurement": "rheological properties of solutions at pH 3.4", "setting": "[3]", "value": "higher"}]}]}
